Test results as given in patent US20130203116, “EXPRESSION AND PURIFICATION OF FUSION PROTEIN WITH MULTIPLE MBP TAGS” (The Regents of the University of California 1111 Franklin …, published 2013).

Experiments:
[1] = target: T1, BRCA2 (2XMBP-BRCA2, full length) (Homo sapiens, UniProt P51587 P51587:1-3418); assay: EMSA; strongly preferred over dsDNA; 1 mM MgCl2, 2 mM CaCl2, 2 mM ATP, 37 C; conditions: tags: N-terminal 2xMBP with PreScission site, expressed in human 293T cells, amylose + HiTrap Q
[2] = target: T1, BRCA2 (2XMBP-BRCA2, full length); assay: EMSA; strongly preferred over dsDNA; slight preference over ssDNA at high salt (0.5-1 M NaCl); 1 mM MgCl2, 2 mM CaCl2, 2 mM ATP, 37 C; conditions: tags: N-terminal 2xMBP with PreScission site; expressed in human 293T cells, amylose + HiTrap Q; label: 5'-32P on 167-mer (EMSA); 42 bp duplex with 125 nt 3' ssDNA overhang

T1 sequence (P51587 whole entry, one chain of several): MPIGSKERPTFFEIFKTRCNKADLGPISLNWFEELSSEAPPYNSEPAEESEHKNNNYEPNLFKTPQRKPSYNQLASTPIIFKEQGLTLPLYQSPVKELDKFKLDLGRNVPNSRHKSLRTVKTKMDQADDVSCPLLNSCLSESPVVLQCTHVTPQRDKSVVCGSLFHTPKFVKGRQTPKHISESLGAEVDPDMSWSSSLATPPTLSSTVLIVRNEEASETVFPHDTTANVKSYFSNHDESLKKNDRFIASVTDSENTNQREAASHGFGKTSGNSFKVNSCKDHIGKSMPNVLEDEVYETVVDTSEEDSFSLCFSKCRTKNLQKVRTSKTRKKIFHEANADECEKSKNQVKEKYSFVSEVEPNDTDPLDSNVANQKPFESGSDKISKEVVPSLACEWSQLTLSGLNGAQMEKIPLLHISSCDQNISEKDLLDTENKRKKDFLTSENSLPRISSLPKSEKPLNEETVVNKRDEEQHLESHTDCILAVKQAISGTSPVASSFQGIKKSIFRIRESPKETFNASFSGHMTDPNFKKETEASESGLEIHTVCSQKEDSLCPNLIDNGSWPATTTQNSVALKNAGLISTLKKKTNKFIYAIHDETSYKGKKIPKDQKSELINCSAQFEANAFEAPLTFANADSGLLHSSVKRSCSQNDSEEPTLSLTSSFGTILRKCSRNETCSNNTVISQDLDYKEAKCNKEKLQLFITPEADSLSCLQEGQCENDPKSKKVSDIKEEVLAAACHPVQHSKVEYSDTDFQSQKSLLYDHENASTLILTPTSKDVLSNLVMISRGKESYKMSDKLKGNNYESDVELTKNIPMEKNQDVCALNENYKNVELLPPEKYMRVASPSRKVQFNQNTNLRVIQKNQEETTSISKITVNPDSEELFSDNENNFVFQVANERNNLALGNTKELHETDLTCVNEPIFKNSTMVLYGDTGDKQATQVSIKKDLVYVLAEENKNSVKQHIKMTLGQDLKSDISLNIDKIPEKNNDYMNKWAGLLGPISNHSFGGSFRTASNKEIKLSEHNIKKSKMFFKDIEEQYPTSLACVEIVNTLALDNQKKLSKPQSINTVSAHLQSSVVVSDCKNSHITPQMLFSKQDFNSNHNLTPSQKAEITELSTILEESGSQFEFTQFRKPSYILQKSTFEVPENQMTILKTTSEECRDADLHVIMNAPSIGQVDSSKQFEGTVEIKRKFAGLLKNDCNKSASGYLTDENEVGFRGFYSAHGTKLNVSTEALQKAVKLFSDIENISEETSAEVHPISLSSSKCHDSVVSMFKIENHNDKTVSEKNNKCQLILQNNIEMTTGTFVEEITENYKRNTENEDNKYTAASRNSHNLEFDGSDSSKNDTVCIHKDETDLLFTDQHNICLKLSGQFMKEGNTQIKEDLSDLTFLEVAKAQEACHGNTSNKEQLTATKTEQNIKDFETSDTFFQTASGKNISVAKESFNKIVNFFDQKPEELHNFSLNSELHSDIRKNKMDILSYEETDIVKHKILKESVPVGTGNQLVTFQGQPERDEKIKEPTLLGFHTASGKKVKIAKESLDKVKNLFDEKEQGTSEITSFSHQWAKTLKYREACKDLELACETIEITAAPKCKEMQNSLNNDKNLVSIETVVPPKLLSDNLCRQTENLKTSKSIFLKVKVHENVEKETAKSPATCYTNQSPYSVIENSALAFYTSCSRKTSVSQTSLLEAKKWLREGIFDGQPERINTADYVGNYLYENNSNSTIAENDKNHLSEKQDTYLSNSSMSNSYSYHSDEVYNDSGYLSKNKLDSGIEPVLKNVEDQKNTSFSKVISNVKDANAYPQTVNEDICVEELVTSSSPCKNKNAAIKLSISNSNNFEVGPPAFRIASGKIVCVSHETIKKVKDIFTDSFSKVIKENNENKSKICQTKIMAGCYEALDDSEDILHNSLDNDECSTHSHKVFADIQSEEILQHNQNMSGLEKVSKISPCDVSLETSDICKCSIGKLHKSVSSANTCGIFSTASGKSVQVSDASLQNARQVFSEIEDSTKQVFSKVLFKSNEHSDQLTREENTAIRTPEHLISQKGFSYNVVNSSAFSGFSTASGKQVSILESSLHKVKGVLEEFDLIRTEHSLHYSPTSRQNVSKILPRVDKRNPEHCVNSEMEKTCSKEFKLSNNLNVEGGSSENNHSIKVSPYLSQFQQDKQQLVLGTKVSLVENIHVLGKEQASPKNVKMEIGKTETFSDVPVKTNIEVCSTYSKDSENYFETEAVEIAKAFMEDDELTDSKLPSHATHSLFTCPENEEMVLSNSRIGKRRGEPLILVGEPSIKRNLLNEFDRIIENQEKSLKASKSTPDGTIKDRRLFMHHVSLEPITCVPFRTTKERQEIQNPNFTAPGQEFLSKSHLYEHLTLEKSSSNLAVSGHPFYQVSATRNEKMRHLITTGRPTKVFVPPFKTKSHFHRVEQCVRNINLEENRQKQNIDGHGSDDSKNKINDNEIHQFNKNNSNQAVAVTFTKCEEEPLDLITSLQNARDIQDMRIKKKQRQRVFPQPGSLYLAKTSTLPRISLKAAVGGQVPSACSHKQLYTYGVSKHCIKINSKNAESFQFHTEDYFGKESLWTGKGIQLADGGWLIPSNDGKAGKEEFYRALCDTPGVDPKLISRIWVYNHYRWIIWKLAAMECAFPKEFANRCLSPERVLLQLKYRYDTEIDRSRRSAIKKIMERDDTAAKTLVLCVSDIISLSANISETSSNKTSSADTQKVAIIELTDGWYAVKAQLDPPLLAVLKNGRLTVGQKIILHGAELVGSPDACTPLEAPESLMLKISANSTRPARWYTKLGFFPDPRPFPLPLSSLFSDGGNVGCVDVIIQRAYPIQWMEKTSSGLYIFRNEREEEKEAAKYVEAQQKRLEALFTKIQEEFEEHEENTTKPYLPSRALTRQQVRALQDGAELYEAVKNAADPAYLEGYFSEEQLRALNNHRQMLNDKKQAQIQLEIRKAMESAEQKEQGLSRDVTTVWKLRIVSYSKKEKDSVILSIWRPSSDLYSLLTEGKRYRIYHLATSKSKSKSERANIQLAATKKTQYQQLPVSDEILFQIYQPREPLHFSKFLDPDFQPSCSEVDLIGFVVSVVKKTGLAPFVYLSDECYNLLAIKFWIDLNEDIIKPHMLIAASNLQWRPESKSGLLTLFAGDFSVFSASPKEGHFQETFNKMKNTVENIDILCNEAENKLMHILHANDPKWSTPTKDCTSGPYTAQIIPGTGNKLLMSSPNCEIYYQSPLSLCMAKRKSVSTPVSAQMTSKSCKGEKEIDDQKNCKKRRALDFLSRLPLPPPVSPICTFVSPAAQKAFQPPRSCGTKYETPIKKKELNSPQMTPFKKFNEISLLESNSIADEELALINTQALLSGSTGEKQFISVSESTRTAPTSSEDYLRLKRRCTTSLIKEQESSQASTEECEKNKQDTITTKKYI

B1: RJ-167-mer ssDNA (ssDNA)
DNA: CTGCTTTATCAAGATAATTTTTCGACTCATCAGAAATATCCGTTTCCTATATTTATTCCTATTATGTTTTATTCATTTACTTATTCTTTATGTTCATTTTTTATATCCTTTACTTTATTTTCTCTGTTTATTCATTTACTTATTTTGTATTATCCTTATCTTATTTA
B1: binds ([1]; label: 5'-32P (EMSA)).

B2: 3' tailed DNA (RJ-167-mer/RJ-PHIX-42-1) (mixed)
DNA 1: B1 DNA
DNA 2: CGGATATTTCTGATGAGTCGAAAAATTATCTTGATAAAGCAG
B2: binds [2].

B3: 5' tailed DNA (RJ-5'TAIL-167-mer/RJ-PHIX-42-1) (mixed)
DNA 1: ATTTATTCTATTCCCTTTATTTTCTCTGTTTATTCATTTACTTATTTTGTATTAATTTCCTATATTTTTTACTTGTATTTCTTATTCATTTACTTATTTTGTATTATCCTTATTTATATCCTTTCTGCTTTATCAAGATAATTTTTCGACTCATCAGAAATATCCG
DNA 2: B2 DNA 2
B3: binds ([1]; label: 5'-32P on 167-mer (EMSA), 42 bp duplex with 5' ssDNA overhang).
